Experimental data published in patent publication US8710017B2, “Human and mouse targeting peptides identified by phage display” (priority 2000, dated 2014).
Bridge positions count the residues as written; N and C are the ends. Ends that are not written are not given here.

Assays:
[1] = biological target: T1, β5 integrin cytoplasmic domain (Homo sapiens, UniProt P18084); test: Phage binding to immobilized GST-β5cyto; conditions: for β5/GST Ratio: colonies from β5-GST wells divided by GST
T1 construct: the screenings involving the β5 cytoplasmic domain fusion protein
T1 sequence (P18084 743-799 limits assumed): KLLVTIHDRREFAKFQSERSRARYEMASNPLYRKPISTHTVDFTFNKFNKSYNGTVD
Protocol: FIG. 10. Binding of β5 cytoplasmic domain-selected phage to immobilized proteins. GST fusion proteins or GST alone were coated on microtiter wells at 10 μg/ml and used to bind phage expressing endostatin binding peptides. […] The data represent the mean colony counts from triplicate wells, with standard error less than 10% of the mean.
β3 and β5 cytoplasmic domain-binding peptides were isolated by screening multiple phage libraries with recombinant GST fusion proteins that contained either GST-β3cyto or GST-β5cyto coated onto microtiter wells. Immobilized GST was used as a negative control for enrichment during the panning of each cytoplasmic domain. Phage were sequenced from randomly selected clones after three rounds of panning as disclosed elsewhere (Koivunen et al., 1995; Pasqualini et al., 1995). Distinct sequences were isolated that interacted specifically with the β3 or with the β5 cytoplasmic domains (Table 9). Randomly selected clones from panning rounds II and III were sequenced. Amino acid sequences of the phagemid encoded peptides were deduced from nucleotide sequences. The ratios were calculated by dividing the number of colonies recovered from β3-GST-coated wells and those recovered from GST or BSA.
A similar strategy was used to determine the specificity of the phage isolated in the screenings involving the β5 cytoplasmic domain fusion protein.
To determine whether the binding of the selected motifs was specific for each cytoplasmic domain, binding assays were performed comparing the interaction of individual phage motifs with β1, β3, or β5 cytoplasmic domain fusion proteins. […] Both the β3- and β5-selected phage selectively interacted with the proteins on which they were originally selected, with average binding selectivities observed of β3/β1=3.9, β3/β5=3.7, β5/β1=4.8, and β5/β3=6.9 (not shown). The average selectivity for integrin cytoplasmic domains versus BSA was about one to two orders of magnitude (not shown). None of the phage tested seemed to bind strongly to the β1 cytoplasmic domain (not shown).

APA (SK-RC-49/APA cells) [2] = biological target: T2, APA (SK-RC-49/APA cells) (Homo sapiens, UniProt Q07075); test: Cell panning of CX3CX3CX3C phage library on SK-RC-49/APA cells (insert frequency); assay type: cell-based
T2 construct: The renal carcinoma cell line SK-RC-49 was transfected with an expression vector encoding full-length APA cDNA; expressed in transfected cells; host or cells: SK-RC-49 renal carcinoma cells, stably transfected (G418)
Protocol: A CX3CX3CX3C(C, cysteine; X, any amino acid) library was prepared (Rajotte et al., 1998). […] Cells were detached by incubation with 2.5 mM EDTA in PBS, washed once in binding medium (DMEM high glucose supplemented with 20 mM HEPES and 2% FCS), and resuspended in the same medium at a concentration of 2×10^6 cells/ml. 10^10 TU of phage were added to 500 μl of the cell suspension, and the mixture was incubated overnight (first round) or for 2 h (successive rounds) at 4° C. with gentle rotation. Cells were washed five times in binding medium at room temperature and resuspended in 100 μl of the same medium. Phage were rescued by adding 1 ml of exponentially growing K91Kan Escherichia coli bacteria and incubating the mixture for 1 h at room temperature. Bacteria were diluted in 10 ml of LB medium supplemented with 0.2 μg/ml tetracycline and incubated for another 20 min at room temperature. Serial dilutions were plated on LB plates containing 40 μg/ml tetracycline, and plates were incubated at 37° C. overnight before colonies were counted.
The CX3CX3CX3C phage library (10^10 transducing units [TU]) was preadsorbed on parental SK-RC-49 cells to decrease nonspecific binding. […] SK-RC-49/APA-bound phage were amplified and used for two consecutive rounds of selection.

[3] = test system: MDA-MB-435-derived tumor xenografts; test: In vivo tumor homing of APA-binding phage; set-up: species or system mouse; conditions: 10^9 TU iv, 5 min circulation, FIG. 22
Protocol: MDA-MB-435-derived tumor xenografts were established in female nude mice 2 months old (Jackson Labs, Bar Harbor, Me.). Mice were anesthetized with Avertin and injected intravenously through the tail vein with 10^9 TU of the phage in a 200 μl volume of DMEM. The phage were allowed to circulate for 5 min, and the animals were perfused through the heart with 5 ml of DMEM. The tumor and brain were dissected from each mouse, weighed, and equal amounts of tissue were homogenized. The tissue homogenates were washed three times with ice-cold DMEM containing a proteinase inhibitor cocktail and 0.1% BSA. Bound phage were rescued and counted as described for cell panning. Fd-tet phage was injected at the same input as a control. The experiment was repeated twice. In parallel, part of the same tissue samples were fixed in Bouin solution, and imbedded in paraffin for preparation of tissue sections. An antibody to M-13 phage (Amersham-Pharmacia) was used for the staining.

APA (SK-RC-49/APA cells) [4] = biological target: T2, APA (SK-RC-49/APA cells); test: Phage binding specificity assay on SK-RC-49/APA cells; assay type: cell-based
Protocol: The cell binding assay was performed with an input of 10^9 TU as described for the cell panning. The specificity was confirmed by adding […] (SEQ ID NO:123) peptide to the binding medium in increasing concentrations. For phage binding on immunocaptured APA, wells were blocked for 1 h at room temperature with PBS/3% BSA and incubated with 10^9 TU for 1 h at room temperature in 50 μl PBS/3% BSA. After eight washes in PBS/1% BSA/0.01% Tween-20 and two washes in PBS, phage were rescued by adding 200 μl of exponentially growing K91Kan E. coli. Each experiment was repeated at least three times.

HUVECs [5] = test: HUVEC chemotaxis assay (Boyden chamber, VEGF-A); assay type: cell-based, human; conditions: 1 mM, VEGF-A 10 ng/ml, 5 h, FIG. 24
Protocol: FIG. 24. […] (SEQ ID NO:123) inhibits HUVEC migration. HUVECs were stimulated with VEGF-A (10 ng/ml). The assay was performed in a Boyden microchemotaxis chamber, and cells were allowed to migrate through an 8-μm pore filter for 5 h at 37° C. […] (SEQ ID NO:124) (control) and […] (SEQ ID NO:123) peptides were tested at 1 mM concentration. Migrated cells were stained and five high-power fields (magnitude 100×) for each microwell were counted. Error bars are the standard error of the means of triplicate microwells.
A cell migration assay was performed in a 48-well microchemotaxis chamber (NeuroProbe, Gaithersburg, Md.) according to Bussolini et al. (1995). Polyvinylpyrrolidone-free polycarbonate filters (Nucleopore, Cambridge, Mass.) with 8-μm pores were coated with 1% gelatin for 10 min at room temperature and equilibrated in M199 medium supplemented with 2% FCS. […] (SEQ ID NO:123) or control […] (SEQ ID NO:124) peptide (1 mM) was placed in the lower compartment of a Boyden chamber in M199 medium supplemented with 2% FCS and 10 ng/ml VEGF-A (R&D System). Subconfluent cultures that had been starved overnight were harvested in PBS containing 2.5 mM EDTA, washed once in PBS, and resuspended in M199 medium containing 2% FCS at a final concentration of 2×10^6 cells/ml. After the filter was placed between the lower and upper chambers, 50 μl of the cell suspension was seeded in the upper compartment, and cells were allowed to migrate for 5 h at 37° C. in a humidified atmosphere with 5% CO2. The filter was then removed, and cells on the upper side were scraped with a rubber policeman. Migrated cells were fixed in methanol and stained with Giemsa solution (Diff-Quick, Baxter Diagnostics, Rome, Italy). Five random high-power fields (magnitude 100×) were counted in each well. Each assay was run in triplicate.

HUVECs [6] = test: HUVEC cell growth assay (crystal violet, VEGF-A); assay type: cell-based, human; conditions: 1 mM, VEGF-A 10 ng/ml, FIG. 25
Protocol: FIG. 25. […] (SEQ ID NO:123) inhibits HUVEC proliferation. Cells were stimulated with VEGF-A (10 ng/ml), and growth was evaluated at the indicated times by a colorimetric assay based on crystal violet staining. Error bars are the standard error of the means of triplicate wells. Each experiment was repeated at least twice with similar results.
HUVECs were seeded in 48-well plates (10^4 cells/well) and allowed to attach for 24 h in complete M199 medium. The cells were then starved in M199 medium containing 2% FCS for 24 h. […] (SEQ ID NO:123) or control […] (SEQ ID NO:124) peptide (1 mM) was added to the wells in medium containing 2% FCS and 10 ng/ml VEGF-A (R&D System, Abingdom, UK). After incubation for the indicated times, cells were fixed in 2.5% glutaraldehyde, stained with 0.1% crystal violet in 20% methanol, and solubilized in 10% acetic acid. All treatments were done in triplicate. Cell growth was evaluated by measuring the O.D. at 590 nm in a microplate reader (Biorad, Hercules, Calif.). A calibration curve was established and a linear correlation between O.D. and cell counts was observed between 10^3 and 10^5 cells.

HUVECs [7] = test: Three-dimensional Matrigel culture of HUVECs (capillary-like network); assay type: cell-based, human; conditions: 1 mM, 24 h, not shown
Protocol: Matrigel (Collaborative Research, Bedford, Mass.) was added at 100 μl per well to 48-well tissue culture plates and allowed to solidify for 10 min at 37° C. HUVECs were starved for 24 h in M199 medium supplemented with 2% FCS before being harvested in PBS containing 2.5 mM EDTA. 10^4 cells were gently added to each of the triplicate wells and allowed to adhere to the gel coating for 30 min at 37° C. Then, medium was replaced with indicated concentrations of […] (SEQ ID NO:123) or […] (SEQ ID NO:124) peptides in complete medium. The plates were photographed after 24 h with an inverted microscope (Canon). The assay was repeated three times.

[8] = test system: chicken chorioallantoic membrane (CAM); test: CAM assay for angiogenesis; assay type: in vivo; conditions: control peptide, 1 mM, not shown
Protocol: In vivo angiogenesis was evaluated by a CAM assay (Ribatti et al., 1994). Fertilized eggs from White Leghorn chickens were maintained in constant humidity at 37° C. On the third day of incubation, a square window was opened in the eggshell and 2-3 ml of albumen was removed to detach the developing CAM from the shell. The window was sealed with a glass plate of the same size and the eggs were returned to the incubator. At day 8, 1 mm^3 sterilized gelatin sponges (Gelfoam, Upjohn Co, Kalamazoo, Milan) were adsorbed with VEGF-A (20 ng, R&D System) and either […] (SEQ ID NO:123) or control […] (SEQ ID NO:124) peptide (1 mM) in 3 μl PBS and implanted on the top of the growing CAMs under sterile conditions. CAMs were examined daily until day 12 and photographed in ovo with a Leica stereomicroscope. Capillaries emerging from the sponge were counted. The assay was repeated twice.

endothelial cells = test: Endothelial cell migration (chemotaxis) assay with penetratin peptide chimeras; assay type: cell-based, human; conditions: VEGF-A 20 ng/ml, 5 h, FIG. 16
Protocol: FIG. 16. Effect of penetratin peptide chimeras on endothelial cell migration. Cell migration assay were performed in a 48-well microchemotaxis chamber. Five random high-power fields (magnitude 40×) were counted in each well.
Cell migration assays were performed as follows: 48-well microchemotaxis chambers were used. Polyvinylpyrrolidone-free polycarbonate filters (Nucleopore, Cambridge, Mass.) with 8-μm pores were coated with 1% gelatin for 10 min at room temperature and equilibrated in M199 medium supplemented with 2% FCS. Peptides were placed in the lower compartment of a Boyden chamber in M199 supplemented with 2% FCS, 20 ng/ml VEGF-A (R&D System), and 1 U/ml heparin. Overnight-starved subconfluent cultures were quickly trypsinized, and resuspended in M199 containing 2% FCS at a final concentration of 2×10^6 cells/ml. After the filter was placed between lower and upper chambers, 50 μl of the cell suspension was seeded in the upper compartment. Cells were allowed to migrate for 5 h at 37° C. in a humidified atmosphere with 5% CO2. The filter was then removed, and cells on the upper side were scraped with a rubber policeman. […] Five random high-power fields (magnitude 40×) were counted in each well.
Cell migration was assayed in a 48-well microchemotaxis chamber. […] Five random high-power fields (magnitude 40×) were counted in each well.

T2 sequence (Q07075 whole entry): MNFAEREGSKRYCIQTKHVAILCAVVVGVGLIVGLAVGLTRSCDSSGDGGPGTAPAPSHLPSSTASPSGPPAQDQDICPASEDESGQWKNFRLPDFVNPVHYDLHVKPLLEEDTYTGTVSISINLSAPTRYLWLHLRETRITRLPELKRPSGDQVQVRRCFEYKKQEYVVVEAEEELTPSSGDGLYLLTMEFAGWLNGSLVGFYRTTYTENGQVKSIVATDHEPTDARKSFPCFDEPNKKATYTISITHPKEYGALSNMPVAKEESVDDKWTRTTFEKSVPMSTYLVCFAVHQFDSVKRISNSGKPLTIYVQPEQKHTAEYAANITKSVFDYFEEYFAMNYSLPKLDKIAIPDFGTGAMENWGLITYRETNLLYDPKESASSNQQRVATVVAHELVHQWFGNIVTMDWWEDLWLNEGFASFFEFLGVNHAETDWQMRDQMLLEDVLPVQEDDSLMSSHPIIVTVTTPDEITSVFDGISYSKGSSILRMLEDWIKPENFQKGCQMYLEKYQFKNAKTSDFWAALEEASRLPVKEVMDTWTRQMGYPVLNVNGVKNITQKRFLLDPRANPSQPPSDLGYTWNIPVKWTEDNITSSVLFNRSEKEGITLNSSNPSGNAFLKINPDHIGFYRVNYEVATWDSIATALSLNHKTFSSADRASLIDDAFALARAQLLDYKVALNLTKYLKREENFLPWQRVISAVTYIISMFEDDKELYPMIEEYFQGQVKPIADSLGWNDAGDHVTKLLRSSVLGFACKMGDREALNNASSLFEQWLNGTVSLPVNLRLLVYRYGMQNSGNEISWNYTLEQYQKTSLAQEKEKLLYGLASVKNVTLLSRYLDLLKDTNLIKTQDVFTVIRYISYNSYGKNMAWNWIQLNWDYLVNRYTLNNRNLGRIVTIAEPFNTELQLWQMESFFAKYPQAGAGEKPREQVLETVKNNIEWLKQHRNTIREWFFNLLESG

Sequence: CKLWQEDGY
- β5/GST Ratio [1]: 1.8

Sequence: CYNLCIRECESICGADGACWTWCADGCSRSC
- Round 2 (%) (APA (SK-RC-49/APA cells) [2]; share of 18 randomly selected phage inserts, round 2): 50%
- Round 3 (%) (APA (SK-RC-49/APA cells) [2]; share of phage inserts, round 3): 100%
- enrichment in tumor xenografts compared to brain tissue [3]: Neither CYNLCIRECESICGADGACWTWCADGCSRSC (SEQ ID NO:125) nor CLGQCASICVNDC (SEQ ID NO:126) phage showed any tumor-homing preference
- displacement of phage binding by CPRECESIC peptide (APA (SK-RC-49/APA cells) [4]; data not shown): displaced

Sequence: DWFSYYEL
- β5/BSA Ratio ([1]; colonies from β5-GST wells divided by BSA): 153
- β5/GST Ratio [1]: 1.7

Sequence: GACVRLSACGA (disulfide 3-9 (inferred)) [unrelated cyclic control peptide, reference compound]
- inhibition of chemotaxis of HUVECs (HUVECs [5]): no significant effect
- inhibition of HUVEC proliferation (HUVECs [6]): no significant effect
- HUVEC morphogenesis / capillary-like network (HUVECs [7]): did not affect HUVEC morphogenesis
- effect on the number of growing vessels [8]: no effect
- competition with CPKVCPRECESNC phage for binding to SK-RC-49/APA cells (APA (SK-RC-49/APA cells) [4]; soluble peptide in binding medium, not shown): no competitive activity

Sequence: GLDTYRGSP [TYR-11 tested as penetratin chimera]
- effect on endothelial cell migration (endothelial cells): increase cell migration

Sequence: SDNRYIGSW [Y-18 tested as penetratin chimera]
- effect on endothelial cell migration (endothelial cells): increase cell migration
